Read-outs that look alike come from different tables or passages of the source.
How the values were obtained:
alpha-thrombin [1] = molecular target: alpha-thrombin (human, UniProt P00734;P00734 328-363;364-622); settings: protein: commercial; copies: 1;1; label: radiolabel (32P); 3-way junction, predicted
229E RBD = 229E RBD (seasonal coronavirus 229E, UniProt P15423 293-435); assay: dot blot (filter binding); 10 nM protein; settings: protein: recombinant; label: radiolabel (32P); 3-way junction, predicted
HKU1 RBD = HKU1 RBD (seasonal coronavirus HKU1, UniProt Q5MQD0 325-607); assay: dot blot (filter binding); 10 nM protein; settings: protein: recombinant; label: radiolabel (32P); 3-way junction, predicted
OC43 RBD = OC43 RBD (seasonal coronavirus OC43, UniProt P36334 333-607); assay: dot blot (filter binding); 10 nM protein; settings: protein: recombinant; label: radiolabel (32P); 3-way junction, predicted
NL63 RBD = NL63 RBD (seasonal coronavirus NL63, UniProt Q6Q1S2 481-616); assay: dot blot (filter binding); 10 nM protein; settings: protein: recombinant; label: radiolabel (32P); 3-way junction, predicted
SARS-CoV-1 spike protein = SARS-CoV-1 spike protein (SARS-CoV-1, UniProt P59594 14-1195); assay: dot blot (filter binding); settings: protein: recombinant; chain copies: 3; label: radiolabel (32P)
[2] = molecular target: Influenza hemagglutinin (HA) (influenza A/California/04/2009 (CAL 09), UniProt C3W5S1 18-530); assay: dot blot (filter binding); settings: protein: recombinant; chain copies: 3; label: radiolabel (32P)
alpha-thrombin [3] = molecular target: alpha-thrombin (human, UniProt P00734;P00734 328-363;364-622); assay: dot blot (filter binding)

Measured: binding result

B1: DRDA8 (structured_DNA)
DNA: TTACGTCAAGGTGTCACTCCTGTGGGTGGAATGGGGAAGGGAGTGTTTTTTTTTGTGAGATGTGTGGTGTGGAATGGGGAAGCATCTCTTTGGCGTG
not listed: alpha-thrombin [3]
no binding: all other assays above

B2: DRDA10 (structured_DNA)
DNA: TTACGTCAAGGTGTCACTCCTGTGGGTGGAATGGGGAAGGGAGTGTTTTTTTTTTCGGAGATGTGTGTGTGAAACAGTGGGAAGCATCTCTTTGGCGTG
no binding: alpha-thrombin [3]

Reference: article PMC12182893, “Dimeric DNA Aptamers for the Spike Protein of SARS‐CoV‐2 Derived from a Structured Library with Dual Random Domains”
